From article PMC3553985 (Nucleic Acids Research, 2012) come the findings set out here.

The target in this assay is T1, γ subunit of Sulfolobus solfataricus aIF2 (Ss-aIF2γ), native version (S. solfataricus, UniProt Q980A5 2-415).
T1 sequence: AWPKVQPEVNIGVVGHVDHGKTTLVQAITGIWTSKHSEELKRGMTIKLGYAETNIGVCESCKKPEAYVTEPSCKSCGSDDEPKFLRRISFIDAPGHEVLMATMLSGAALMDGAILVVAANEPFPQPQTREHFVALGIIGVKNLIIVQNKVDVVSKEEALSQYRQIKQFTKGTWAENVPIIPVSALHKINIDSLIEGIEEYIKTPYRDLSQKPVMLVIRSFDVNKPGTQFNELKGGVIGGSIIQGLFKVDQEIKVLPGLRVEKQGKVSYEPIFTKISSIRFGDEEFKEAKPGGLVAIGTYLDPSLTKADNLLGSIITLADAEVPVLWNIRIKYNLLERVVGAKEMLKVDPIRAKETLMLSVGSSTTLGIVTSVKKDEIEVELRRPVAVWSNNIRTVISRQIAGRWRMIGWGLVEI
As to the kind of experiment: SEC.

B1: yeast αD3ΔC274, His-tag removed (SAXS sample) (domain or fragment)
chain: TPQAVKIRADVEVSCFSYEGIDAIKDALKSAEDMSTEQMQVKVKLVAAPLYVLTTQALDKQKGIEQLESAIEKITEVITKYGGVCNITMPPKAVTAT
As for B1, the binding result is recorded as “binds”.

B2: yeast eIF2αΔC274, His-tag removed (SAXS sample) (domain or fragment)
chain: MSTSHCRFYENKYPEIDDIVMVNVQQIAEMGAYVKLLEYDNIEGMILLSELSRRRIRSIQKLIRVGKNDVAVVLRVDKEKGYIDLSKRRVSSEDIIKCEEKYQKSKTVHSILRYCAEKFQIPLEELYKTIAWPLSRKFGHAYEAFKLSIIDETVWEGIEPPSKDVLDELKNYISKRLTPQAVKIRADVEVSCFSYEGIDAIKDALKSAEDMSTEQMQVKVKLVAAPLYVLTTQALDKQKGIEQLESAIEKITEVITKYGGVCNITMPPKAVTAT
Turning to B2, the binding result is “binds”.
